Source: patent publication US20120137392A1

Molecular target: eJMC^Y859A (eJMC mutated in the first amino acid of the YXXΦ sequence) fused to GFP (Arabidopsis thaliana), Q9FL28
Experiment: cell-based or functional assay

Chain of eJMC^Y859A (eJMC mutated in the first amino acid of the YXXΦ sequence) fused to GFP (Arabidopsis thaliana), Q9FL28 (Q9FL28 other isoform, or with tags, fused parts or gaps Y859A Y859A): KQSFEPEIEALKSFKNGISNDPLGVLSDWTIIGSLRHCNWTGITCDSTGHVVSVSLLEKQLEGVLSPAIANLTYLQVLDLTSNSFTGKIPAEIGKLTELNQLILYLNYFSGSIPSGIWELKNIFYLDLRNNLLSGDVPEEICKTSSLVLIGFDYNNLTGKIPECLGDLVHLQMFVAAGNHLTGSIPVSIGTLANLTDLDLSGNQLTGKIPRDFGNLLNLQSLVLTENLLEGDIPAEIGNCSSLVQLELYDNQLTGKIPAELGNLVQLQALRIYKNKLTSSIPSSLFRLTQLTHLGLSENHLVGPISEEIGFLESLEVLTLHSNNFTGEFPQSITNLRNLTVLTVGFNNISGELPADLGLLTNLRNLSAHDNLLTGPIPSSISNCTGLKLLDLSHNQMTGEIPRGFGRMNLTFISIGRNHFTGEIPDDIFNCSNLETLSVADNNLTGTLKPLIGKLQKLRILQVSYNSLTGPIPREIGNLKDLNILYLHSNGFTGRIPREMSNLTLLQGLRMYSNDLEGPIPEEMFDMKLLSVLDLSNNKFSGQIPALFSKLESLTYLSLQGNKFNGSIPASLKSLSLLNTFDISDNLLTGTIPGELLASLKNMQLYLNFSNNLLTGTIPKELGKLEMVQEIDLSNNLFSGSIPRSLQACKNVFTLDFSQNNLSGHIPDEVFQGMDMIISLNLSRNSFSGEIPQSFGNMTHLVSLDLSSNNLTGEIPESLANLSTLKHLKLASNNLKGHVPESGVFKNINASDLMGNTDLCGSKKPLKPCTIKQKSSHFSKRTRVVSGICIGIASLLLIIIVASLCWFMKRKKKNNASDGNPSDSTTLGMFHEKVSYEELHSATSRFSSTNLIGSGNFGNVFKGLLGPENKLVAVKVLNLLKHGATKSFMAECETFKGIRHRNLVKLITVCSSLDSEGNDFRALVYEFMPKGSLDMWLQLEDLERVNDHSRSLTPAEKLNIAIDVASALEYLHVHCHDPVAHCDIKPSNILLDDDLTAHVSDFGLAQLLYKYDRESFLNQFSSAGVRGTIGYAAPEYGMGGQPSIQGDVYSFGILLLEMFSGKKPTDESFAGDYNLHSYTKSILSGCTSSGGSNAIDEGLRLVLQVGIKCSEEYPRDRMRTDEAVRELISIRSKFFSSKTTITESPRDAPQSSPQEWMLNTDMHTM

QRLSTGSRINSAKDDAAGLQIA [flg22 (peptide derived from bacterial flagellin)] was tested, and the ethylene accumulation, agroinfiltrated tobacco leaf explants, against the negative control was 4.8 times.
